Experimental data: paper PMC8989545

Assays:
PTK7 (on HCT116 cells) = target: T1, PTK7 (on HCT116 cells) (UniProt Q13308); experiment: flow cytometry on HCT116 cells; settings: live cells, PTK7 inferred, HSA beads: DPBS + 5 mM Mg2+, room temperature, 1 h, beads blocked with BSA/yeast tRNA, 4.5 g/L glucose, 5 mM MgCl2, 0.1 mg/ml yeast tRNA, 1 mg/ml …
T1 sequence: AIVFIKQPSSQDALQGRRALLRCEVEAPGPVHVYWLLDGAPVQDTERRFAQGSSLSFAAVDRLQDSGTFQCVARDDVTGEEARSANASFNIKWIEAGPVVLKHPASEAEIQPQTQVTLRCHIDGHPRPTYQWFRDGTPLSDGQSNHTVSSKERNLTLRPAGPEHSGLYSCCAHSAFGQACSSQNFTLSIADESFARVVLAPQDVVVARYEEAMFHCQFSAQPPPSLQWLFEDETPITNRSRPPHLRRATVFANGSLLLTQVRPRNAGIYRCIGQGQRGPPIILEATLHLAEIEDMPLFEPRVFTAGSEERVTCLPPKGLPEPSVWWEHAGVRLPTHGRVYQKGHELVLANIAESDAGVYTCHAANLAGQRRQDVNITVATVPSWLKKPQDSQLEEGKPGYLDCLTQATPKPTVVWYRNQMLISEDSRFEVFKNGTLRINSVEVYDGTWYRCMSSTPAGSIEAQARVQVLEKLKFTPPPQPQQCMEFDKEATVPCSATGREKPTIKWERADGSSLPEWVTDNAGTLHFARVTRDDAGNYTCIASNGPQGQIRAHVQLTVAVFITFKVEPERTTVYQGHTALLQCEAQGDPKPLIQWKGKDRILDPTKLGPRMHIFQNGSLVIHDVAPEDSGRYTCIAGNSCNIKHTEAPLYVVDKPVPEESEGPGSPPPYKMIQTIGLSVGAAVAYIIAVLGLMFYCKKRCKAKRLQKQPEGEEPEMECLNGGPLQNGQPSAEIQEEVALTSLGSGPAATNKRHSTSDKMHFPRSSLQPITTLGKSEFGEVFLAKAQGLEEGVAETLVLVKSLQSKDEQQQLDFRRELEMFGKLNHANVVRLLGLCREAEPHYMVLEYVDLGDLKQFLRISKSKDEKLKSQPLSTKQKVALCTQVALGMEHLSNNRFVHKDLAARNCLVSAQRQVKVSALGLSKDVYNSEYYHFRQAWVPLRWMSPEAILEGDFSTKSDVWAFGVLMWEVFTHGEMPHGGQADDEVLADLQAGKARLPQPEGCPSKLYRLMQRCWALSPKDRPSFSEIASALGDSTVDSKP

EpCAM (on HCT116 cells) = target: T2, EpCAM (on HCT116 cells) (UniProt P16422); experiment: flow cytometry on HCT116 cells; settings: live cells, EpCAM inferred, HSA beads: DPBS + 5 mM Mg2+, room temperature, 1 h, beads blocked with BSA/yeast tRNA, 4.5 g/L glucose, 5 mM MgCl2, 0.1 mg/ml yeast tRNA, 1 mg/ml …
T2 sequence: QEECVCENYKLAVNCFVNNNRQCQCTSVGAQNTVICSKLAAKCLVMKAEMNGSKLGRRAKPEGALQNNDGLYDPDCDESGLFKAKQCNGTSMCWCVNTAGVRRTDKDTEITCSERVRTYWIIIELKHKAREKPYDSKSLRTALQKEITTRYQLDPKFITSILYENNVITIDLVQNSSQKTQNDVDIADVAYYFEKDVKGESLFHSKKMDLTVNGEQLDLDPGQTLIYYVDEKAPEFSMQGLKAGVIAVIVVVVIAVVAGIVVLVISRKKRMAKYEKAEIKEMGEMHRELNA

[1] = target: human serum albumin (HSA) (Homo sapiens) (UniProt P02768); experiment: flow cytometry on HSA-coated beads; settings: HSA beads: DPBS + 5 mM Mg2+, room temperature, 1 h, beads blocked with BSA/yeast tRNA, cells: DPBS, 4.5 g/L glucose, 5 mM MgCl2, 0.1 mg/ml yeast tRNA, 1 mg/ml …
[2] = target: human serum albumin (HSA) (Homo sapiens) (UniProt P02768); experiment: flow cytometry; settings: N = artificial base F; HSA beads: DPBS + 5 mM Mg2+, room temperature, 1 h, beads blocked with BSA/yeast tRNA; cells: DPBS, 4.5 g/L glucose, 5 mM MgCl2, 0.1 mg/ml yeast tRNA, 1 mg/ml …

Question: How did the Kd (PTK7 (on HCT116 cells)) turn out when “ATCTAACTGCTGCGCCGCCGGGAAAATACTGTACGGTTAGA [Sgc8]” was run?
Answer: The Kd was 0.0032 µM.

Question: With “CACTACAGAGGTTGCGTCTGTCCCACGTTGTCATGGGGGGTTGGCCTG [SYL3C]” as the sequence, how does the Kd (EpCAM (on HCT116 cells)) read?
Answer: Its Kd is 0.321 µM.

Question: For “NNATCTAACTGCTGCGCCGCCGGGAAAATACTGTACGGTTAGANN [Sgc8-F20]”, which Kd ([1]; N = artificial base F) is on record?
Answer: The Kd was 0.403 µM.

Question: Which results are given for “NNATCTAACTGCTGCGCCGCCGGGANANTANTGTACGGTTAGANN [Sgc8-F23]”?
Answer: Kd (PTK7 (on HCT116 cells); N = artificial base F (3,5-bis(trifluoromethyl)benzene), 7 F): 0.0171 µM; Kd ([1]; 5 mM Mg2+, in the SYL3C section printed as 191.8 nM, N = artificial base F (3,5-bis(trifluoromethyl)benzene), 7 F): 0.194 µM

Question: Which Kd (EpCAM (on HCT116 cells); N = artificial base F) does the source give for “NNCACTACAGAGGTTGCGTCTGTCCCACGTTGTCATGGGGGGTTGGCCTGNN [SYL3C-F20]” here?
Answer: Its Kd is 0.369 µM.

Question: And the Kd [2]?
Answer: Its Kd is 1.09 µM.
